Laboratory results reported in PMC5483951.

Target: hnRNP F/H (human (endogenous in 293))
Assay: co-IP; extracts of 293 cells expressing FLAG-SRSF10, RS1-FLAG, RS2-FLAG or RS1-ΔΔ-FLAG, lysed in NET-2 buffer (50 mM Tris-HCl pH 7.4, 150 mM NaCl, 0.05% NP-40), treated with RNase A; anti-hnRNP F, H or K antibodies on protein G magnetic beads, overnight at 4°C; blot with anti-FLAG; cells treated or not with oxaliplatin

Chain of FLAG-SRSF10 (O75494 whole entry): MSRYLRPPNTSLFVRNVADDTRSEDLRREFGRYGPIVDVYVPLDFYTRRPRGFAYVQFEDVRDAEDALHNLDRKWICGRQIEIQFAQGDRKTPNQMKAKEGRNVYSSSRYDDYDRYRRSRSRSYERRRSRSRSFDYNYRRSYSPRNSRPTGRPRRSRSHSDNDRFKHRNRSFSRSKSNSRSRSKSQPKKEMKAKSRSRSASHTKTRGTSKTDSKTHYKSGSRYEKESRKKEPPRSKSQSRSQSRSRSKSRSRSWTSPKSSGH

FLAG-SRSF10 (from UniProt O75494 1-262) (natural protein)
percent of total SRSF10 associated: 0.5 to 1%
